Paper PMC6070864, “The Bacteriophage T4 MotB Protein, a DNA-Binding Protein, Improves Phage Fitness”

How the values were obtained:
[1] = biological target: T1, MotB-His (Enterobacteria phage T4, UniProt Q01437 1-162); assay: EMSA; apparent Kd (50% shift); 4 mM Mg acetate; Oligo EMSA/footprint: 40 mM Tris acetate pH 7.9, 20 mM Tris-HCl pH 8.0, 2 mM K phosphate, 60 mM NaCl, 150 mM K glutamate, 4 mM Mg acetate, 0.52 mM EDTA, 0.14 mM DTT, 0.1 mg/mL BSA, 0.004% Triton X-100, 30% glycerol, 1 nM DNA (5 nM in footprint), 37 C 10 min; T4/lambda EMSA: 20 mM Tris-HCl pH 8, 2 mM K phosphate, 60 mM NaCl, 0.42 mM EDTA, 0.04 mM DTT, 0.004% Triton …; settings: protein: recombinant; tags: C-terminal His6; label: 5'-32P top strand
T1 sequence: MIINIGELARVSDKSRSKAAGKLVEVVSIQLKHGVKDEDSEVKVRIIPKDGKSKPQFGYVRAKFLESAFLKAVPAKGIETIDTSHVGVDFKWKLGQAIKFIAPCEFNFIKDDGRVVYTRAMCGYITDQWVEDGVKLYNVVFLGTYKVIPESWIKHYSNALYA

[2] = biological target: T1, MotB-His; assay: EMSA; 4 mM Mg acetate; Oligo EMSA/footprint: 40 mM Tris acetate pH 7.9, 20 mM Tris-HCl pH 8.0, 2 mM K phosphate, 60 mM NaCl, 150 mM K glutamate, 4 mM Mg acetate, 0.52 mM EDTA, 0.14 mM DTT, 0.1 mg/mL BSA, 0.004% Triton X-100, 30% glycerol, 1 nM DNA (5 nM in footprint), 37 C 10 min; T4/lambda EMSA: 20 mM Tris-HCl pH 8, 2 mM K phosphate, 60 mM NaCl, 0.42 mM EDTA, 0.04 mM DTT, 0.004% Triton X-100, 30% glycerol, 37 C 10 …; settings: protein: recombinant; tags: C-terminal His6; label: 5'-32P

B1: dsP8 (37 bp) (dsDNA)
DNA 1: CAGAGACTATAATTAATAAATACAAAAACTATAAATG
DNA 2: CATTTATAGTTTTTGTATTTATTAATTATAGTCTCTG
Q: With B1 as the binder, how does the Kd [1] read?
A: 100 ± 30 nM

Q: Which binding signal [2] does the source give for CAGAGACTATAATTAATAAATACAAAAACTATAAATG (ssDNA) [ssP8 (37 nt)] here?
A: ~6 fold lower affinity than dsP8
